Experimental data reported in IntAct's records for PubMed 29892012.

B1: Coiled-coil alpha-helical rod protein 1 (Homo sapiens), Q8TD31 (parent)
chain: MFPPSGSTGLIPPSHFQARPLSTLPRMAPTWLSDIPLVQPPGHQDVSERRLDTQRPQVTMWERDVSSDRQEPGRRGRSWGLEGSQALSQQAEVIVRQLQELRRLEEEVRLLRETSLQQKMRLEAQAMELEALARAEKAGRAEAEGLRAALAGAEVVRKNLEEGSQRELEEVQRLHQEQLSSLTQAHEEALSSLTSKAEGLEKSLSSLETRRAGEAKELAEAQREAELLRKQLSKTQEDLEAQVTLVENLRKYVGEQVPSEVHSQTWELERQKLLETMQHLQEDRDSLHATAELLQVRVQSLTHILALQEEELTRKVQPSDSLEPEFTRKCQSLLNRWREKVFALMVQLKAQELEHSDSVKQLKGQVASLQEKVTSQSQEQAILQRSLQDKAAEVEVERMGAKGLQLELSRAQEARRRWQQQTASAEEQLRLVVNAVSSSQIWLETTMAKVEGAAAQLPSLNNRLSYAVRKVHTIRGLIARKLALAQLRQESCPLPPPVTDVSLELQQLREERNRLDAELQLSARLIQQEVGRAREQGEAERQQLSKVAQQLEQELQQTQESLASLGLQLEVARQGQQESTEEAASLRQELTQQQELYGQALQEKVAEVETRLREQLSDTERRLNEARREHAKAVVSLRQIQRRAAQEKERSQELRRLQEEARKEEGQRLARRLQELERDKNLMLATLQQEGLLSRYKQQRLLTVLPSLLDKKKSVVSSPRPPECSASAPVAAAVPTRESIKGSLSVLLDDLQDLSEAISKEEAVCQGDNLDRCSSSNPQMSS
partner: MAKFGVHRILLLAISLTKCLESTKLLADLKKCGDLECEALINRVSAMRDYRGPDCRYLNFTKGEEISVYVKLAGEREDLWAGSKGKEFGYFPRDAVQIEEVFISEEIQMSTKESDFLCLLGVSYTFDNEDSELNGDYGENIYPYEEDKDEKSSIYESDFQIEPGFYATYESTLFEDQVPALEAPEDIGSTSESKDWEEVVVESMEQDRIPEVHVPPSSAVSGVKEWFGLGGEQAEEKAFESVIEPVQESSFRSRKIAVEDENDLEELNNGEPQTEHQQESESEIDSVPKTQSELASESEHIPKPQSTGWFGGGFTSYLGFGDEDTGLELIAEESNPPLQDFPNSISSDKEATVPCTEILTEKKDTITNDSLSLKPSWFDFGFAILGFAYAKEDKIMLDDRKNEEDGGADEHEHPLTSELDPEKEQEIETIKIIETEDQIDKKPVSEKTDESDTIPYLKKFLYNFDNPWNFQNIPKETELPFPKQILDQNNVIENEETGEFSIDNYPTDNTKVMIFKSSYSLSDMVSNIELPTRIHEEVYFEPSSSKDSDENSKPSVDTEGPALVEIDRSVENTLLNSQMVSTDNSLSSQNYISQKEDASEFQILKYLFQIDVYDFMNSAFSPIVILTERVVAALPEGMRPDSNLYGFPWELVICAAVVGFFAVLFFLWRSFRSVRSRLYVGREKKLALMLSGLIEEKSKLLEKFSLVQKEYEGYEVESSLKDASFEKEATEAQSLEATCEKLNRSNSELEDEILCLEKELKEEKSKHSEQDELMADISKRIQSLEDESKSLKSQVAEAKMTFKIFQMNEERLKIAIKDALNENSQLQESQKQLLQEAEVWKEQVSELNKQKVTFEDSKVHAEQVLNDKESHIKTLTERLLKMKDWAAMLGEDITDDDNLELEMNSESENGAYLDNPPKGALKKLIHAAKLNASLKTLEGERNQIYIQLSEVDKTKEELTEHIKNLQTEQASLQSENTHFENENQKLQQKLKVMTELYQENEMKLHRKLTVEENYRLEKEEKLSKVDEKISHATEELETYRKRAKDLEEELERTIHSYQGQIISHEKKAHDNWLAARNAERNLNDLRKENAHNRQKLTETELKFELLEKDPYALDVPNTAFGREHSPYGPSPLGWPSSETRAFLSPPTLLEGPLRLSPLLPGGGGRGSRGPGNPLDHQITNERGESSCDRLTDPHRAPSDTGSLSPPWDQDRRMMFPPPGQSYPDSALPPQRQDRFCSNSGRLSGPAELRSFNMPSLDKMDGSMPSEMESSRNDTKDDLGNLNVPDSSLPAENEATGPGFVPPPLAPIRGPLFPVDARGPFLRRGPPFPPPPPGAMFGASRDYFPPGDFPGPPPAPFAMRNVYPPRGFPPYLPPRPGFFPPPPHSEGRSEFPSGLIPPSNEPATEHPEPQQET
B2: Coiled-coil alpha-helical rod protein 1 (Homo sapiens), Q8TD31 (parent)
chain: B1 chain
partner: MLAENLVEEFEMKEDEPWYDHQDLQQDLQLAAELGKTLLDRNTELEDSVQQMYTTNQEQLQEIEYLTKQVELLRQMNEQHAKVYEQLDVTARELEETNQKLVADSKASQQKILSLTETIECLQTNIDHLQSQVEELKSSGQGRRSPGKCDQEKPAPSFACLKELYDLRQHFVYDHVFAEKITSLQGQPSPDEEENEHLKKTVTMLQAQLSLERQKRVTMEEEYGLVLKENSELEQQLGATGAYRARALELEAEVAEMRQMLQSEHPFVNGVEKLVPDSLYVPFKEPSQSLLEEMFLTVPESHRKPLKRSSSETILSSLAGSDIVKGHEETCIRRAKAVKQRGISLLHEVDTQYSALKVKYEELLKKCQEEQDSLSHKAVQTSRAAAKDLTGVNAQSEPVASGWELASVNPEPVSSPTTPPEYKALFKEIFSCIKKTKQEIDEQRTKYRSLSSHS
B3: Protein Largen (Homo sapiens), Q569H4 (parent)
chain: MSAKSKGNPSSSCPAEGPPAASKTKVKEQIKIIVEDLELVLGDLKDVAKELKEVVDQIDTLTSDLQLEDEMTDSSKTDTLNSSSSGTTASSLEKIKVQANAPLIKPPAHPSAILTVLRKPNPPPPPPRLTPVKCEDPKRVVPTANPVKTNGTLLRNGGLPGGPNKIPNGDICCIPNSNLDKAPVQLLMHRPEKDRCPQAGPRERVRFNEKVQYHGYCPDCDTRYNIKNREVHLHSEPVHPPGKIPHQGPPLPPTPHLPPFPLENGGMGISHSNSFPPIRPATVPPPTAPKPQKTILRKSTTTTV
B4: Coiled-coil alpha-helical rod protein 1 (Homo sapiens), Q8TD31 (parent)
chain: B1 chain
partner: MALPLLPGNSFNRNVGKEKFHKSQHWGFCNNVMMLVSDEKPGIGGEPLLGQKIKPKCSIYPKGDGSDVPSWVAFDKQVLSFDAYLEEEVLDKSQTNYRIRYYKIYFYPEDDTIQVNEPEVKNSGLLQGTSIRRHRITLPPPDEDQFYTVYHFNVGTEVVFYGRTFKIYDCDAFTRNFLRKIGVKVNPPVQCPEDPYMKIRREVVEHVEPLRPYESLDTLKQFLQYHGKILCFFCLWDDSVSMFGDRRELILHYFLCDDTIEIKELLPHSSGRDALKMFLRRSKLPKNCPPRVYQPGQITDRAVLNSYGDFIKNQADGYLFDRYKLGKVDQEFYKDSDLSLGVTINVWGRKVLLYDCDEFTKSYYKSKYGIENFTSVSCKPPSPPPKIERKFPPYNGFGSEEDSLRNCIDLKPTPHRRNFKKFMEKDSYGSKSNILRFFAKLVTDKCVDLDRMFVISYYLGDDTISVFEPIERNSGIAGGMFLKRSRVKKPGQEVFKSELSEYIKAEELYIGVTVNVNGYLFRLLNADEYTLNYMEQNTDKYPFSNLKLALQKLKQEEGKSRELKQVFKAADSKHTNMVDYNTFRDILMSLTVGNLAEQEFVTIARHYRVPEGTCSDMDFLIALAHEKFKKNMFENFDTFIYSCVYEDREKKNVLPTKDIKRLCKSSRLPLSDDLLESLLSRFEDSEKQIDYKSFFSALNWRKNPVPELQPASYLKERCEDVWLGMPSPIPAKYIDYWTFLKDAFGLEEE
B5: Coiled-coil alpha-helical rod protein 1 (Homo sapiens), Q8TD31 (parent)
chain: B1 chain
partner: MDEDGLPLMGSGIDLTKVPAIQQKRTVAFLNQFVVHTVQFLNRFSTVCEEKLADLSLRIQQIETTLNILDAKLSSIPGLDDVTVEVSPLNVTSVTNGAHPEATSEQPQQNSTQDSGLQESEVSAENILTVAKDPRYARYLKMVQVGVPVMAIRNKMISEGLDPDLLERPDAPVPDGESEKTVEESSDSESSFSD
B6: Coiled-coil domain-containing protein 14 (Homo sapiens), Q49A88 (parent)
chain: MKRGIRRDPFRKRKLGGRAKKVREPTAVNSFYREASLPSVWASLRRREMVRSGARPGQVLSSGRHTGPAKLTNGKKATYLRKIPRFNADSGYSIHSDSESQAETVHGLDGCASLLRDILRNEDSGSETAYLENRSNSRPLESKRYGSKKKRHEKHTIPLVVQKETSSSDNKKQIPNEASARSERDTSDLEQNWSLQDHYRMYSPIIYQALCEHVQTQMSLMNDLTSKNIPNGIPAVPCHAPSHSESQATPHSSYGLCTSTPVWSLQRPPCPPKVHSEVQTDGNSQFASQGKTVSATCTDVLRNSFNTSPGVPCSLPKTDISAIPTLQQLGLVNGILPQQGIHKETDLLKCIQTYLSLFRSHGKETHLDSQTHRSPTQSQPAFLATNEEKCAREQIREATSERKDLNIHVRDTKTVKDVQKAKNVNKTAEKVRIIKYLLGELKALVAEQEDSEIQRLITEMEACISVLPTVSGNTDIQVEIALAMQPLRSENAQLRRQLRILNQQLREQQKTQKPSGAVDCNLELFSLQSLNMSLQNQLEESLKSQELLQSKNEELLKVIENQKDENKKFSSIFKDKDQTILENKQQYDIEITRIKIELEEALVNVKSSQFKLETAEKENQILGITLRQRDAEVTRLRELTRTLQTSMAKLLSDLSVDSARCKPGNNLTKSLLNIHDKQLQHDPAPAHTSIMSYLNKLETNYSFTHSEPLSTIKNEETIEPDKTYENVLSSRGPQNSNTRGMEEASAPGIISALSKQDSDEGSETMALIEDEHNLDNTIYIPFARSTPEKKSPLSKRLSPQPQIRAATTQLVSNSGLAVSGKENKLCTPVICSSSTKEAEDAPEKLSRASDMKDTQLLKKIKEAIGKIPAATKEPEEQTACHGPSGCLSNSLQVKGNTVCDGSVFTSDLMSDWSISSFSTFTSRDEQDFRNGLAALDANIARLQKSLRTGLLEK
partner: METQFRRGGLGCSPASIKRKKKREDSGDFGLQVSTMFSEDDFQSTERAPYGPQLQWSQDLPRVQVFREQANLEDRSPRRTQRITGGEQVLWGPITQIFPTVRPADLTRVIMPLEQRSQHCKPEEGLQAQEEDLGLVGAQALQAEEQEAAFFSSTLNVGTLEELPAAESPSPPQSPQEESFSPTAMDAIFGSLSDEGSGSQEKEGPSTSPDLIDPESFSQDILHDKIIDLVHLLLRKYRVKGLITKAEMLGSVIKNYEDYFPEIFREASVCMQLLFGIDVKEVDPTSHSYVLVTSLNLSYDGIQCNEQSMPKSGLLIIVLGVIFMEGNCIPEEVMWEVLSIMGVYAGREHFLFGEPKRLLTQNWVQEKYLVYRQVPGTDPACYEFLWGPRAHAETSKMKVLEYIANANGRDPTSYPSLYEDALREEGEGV
B7: Coiled-coil alpha-helical rod protein 1 (Homo sapiens), Q8TD31 (parent)
chain: B1 chain

Variants of: B1
Conditions: with mia2_human MIA2, Q96PC5

Variant	effect of a mutation on the interaction
W337R	disrupting interaction strength

Variants of: B2
Conditions: with cdr2_human CDR2, Q01850

Variant	effect of a mutation on the interaction
W337R	disrupting interaction strength

Variants of: B3
Conditions: with abi2_human ABI2, Q9NYB9
Target sequence in this assay (Q9NYB9 whole entry): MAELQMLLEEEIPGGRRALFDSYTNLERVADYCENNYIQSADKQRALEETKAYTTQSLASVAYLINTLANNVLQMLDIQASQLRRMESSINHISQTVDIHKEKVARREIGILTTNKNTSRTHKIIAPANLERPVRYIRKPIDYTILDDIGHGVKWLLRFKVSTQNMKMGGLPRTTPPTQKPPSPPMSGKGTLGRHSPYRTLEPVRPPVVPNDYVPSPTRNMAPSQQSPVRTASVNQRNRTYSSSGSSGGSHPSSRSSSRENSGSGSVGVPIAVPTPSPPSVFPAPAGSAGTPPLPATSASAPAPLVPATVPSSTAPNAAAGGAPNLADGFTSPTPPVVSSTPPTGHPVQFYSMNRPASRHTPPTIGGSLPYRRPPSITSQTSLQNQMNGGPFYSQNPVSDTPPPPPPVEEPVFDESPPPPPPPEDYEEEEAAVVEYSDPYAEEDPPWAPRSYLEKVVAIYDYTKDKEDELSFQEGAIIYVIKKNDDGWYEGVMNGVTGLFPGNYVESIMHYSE

Variant	effect of a mutation on the interaction
Q98P	with no effect

Variants of: B4
Conditions: with efhc2_human EFHC2, Q5JST6

Variant	effect of a mutation on the interaction
W337R	disrupting interaction strength

Variants of: B5
Conditions: with wasc3_human WASHC3, Q9Y3C0

Variant	effect of a mutation on the interaction
W337R	disrupting interaction strength

Variants of: B6
Conditions: with magab_human MAGEA11, P43364

Variant	effect of a mutation on the interaction
I476T	with no effect

Variants of: B7
Conditions: with nutm1_human NUTM1, Q86Y26

Variant	effect of a mutation on the interaction
W337R	disrupting interaction strength

Variants of: B7
Conditions: with tekt1_human TEKT1, Q969V4

Variant	effect of a mutation on the interaction
W337R	disrupting interaction strength

Variants of: B7
Conditions: with amol2_human AMOTL2, Q9Y2J4
amol2_human AMOTL2, Q9Y2J4, sequence (Q9Y2J4 whole entry): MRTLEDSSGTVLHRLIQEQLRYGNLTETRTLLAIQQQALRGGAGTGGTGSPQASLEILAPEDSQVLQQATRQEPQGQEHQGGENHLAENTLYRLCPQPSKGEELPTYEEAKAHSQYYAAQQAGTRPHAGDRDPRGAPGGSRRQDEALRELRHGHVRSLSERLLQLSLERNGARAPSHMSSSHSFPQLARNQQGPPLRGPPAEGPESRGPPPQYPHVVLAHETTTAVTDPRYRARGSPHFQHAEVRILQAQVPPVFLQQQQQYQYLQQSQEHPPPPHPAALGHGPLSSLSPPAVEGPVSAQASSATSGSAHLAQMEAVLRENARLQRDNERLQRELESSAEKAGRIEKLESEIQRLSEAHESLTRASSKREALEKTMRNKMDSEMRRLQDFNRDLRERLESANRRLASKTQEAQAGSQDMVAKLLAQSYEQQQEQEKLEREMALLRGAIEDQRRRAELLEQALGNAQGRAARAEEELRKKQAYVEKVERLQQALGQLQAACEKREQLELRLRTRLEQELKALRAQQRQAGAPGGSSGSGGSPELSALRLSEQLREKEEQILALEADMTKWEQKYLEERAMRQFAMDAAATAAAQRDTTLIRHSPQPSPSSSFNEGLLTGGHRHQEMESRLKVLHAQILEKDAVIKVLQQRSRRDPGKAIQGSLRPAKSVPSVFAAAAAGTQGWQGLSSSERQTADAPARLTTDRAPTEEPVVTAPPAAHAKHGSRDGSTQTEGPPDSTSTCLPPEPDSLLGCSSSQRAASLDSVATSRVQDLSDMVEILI

Variant	effect of a mutation on the interaction
W337R	disrupting interaction strength

Variants of: B7
Conditions: with k1h1_human KRT31, Q15323
k1h1_human KRT31, Q15323, sequence (Q15323 whole entry): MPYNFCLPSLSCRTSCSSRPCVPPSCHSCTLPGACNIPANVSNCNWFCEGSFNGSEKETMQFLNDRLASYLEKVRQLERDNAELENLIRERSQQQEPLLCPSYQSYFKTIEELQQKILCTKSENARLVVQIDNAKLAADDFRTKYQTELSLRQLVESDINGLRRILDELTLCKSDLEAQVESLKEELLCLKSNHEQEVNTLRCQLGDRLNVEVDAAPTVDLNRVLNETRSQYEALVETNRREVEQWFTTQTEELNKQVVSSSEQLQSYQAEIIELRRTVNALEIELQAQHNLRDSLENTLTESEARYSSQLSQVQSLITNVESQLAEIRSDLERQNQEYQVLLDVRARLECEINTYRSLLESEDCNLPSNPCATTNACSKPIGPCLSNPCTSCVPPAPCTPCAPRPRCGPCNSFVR

Variant	effect of a mutation on the interaction
W337R	with no effect

Variants of: B7
Conditions: with abi2_human ABI2, Q9NYB9
Target sequence in this assay (Q9NYB9 whole entry): as the sequence (Q9NYB9 whole entry) above

Variant	effect of a mutation on the interaction
W337R	disrupting interaction strength

Variants of: B7
Conditions: with txlnb_human TXLNB

Variant	effect of a mutation on the interaction
W337R	disrupting interaction strength

Variants of: B7
Conditions: with ndc80_human NDC80, O14777
ndc80_human NDC80, O14777, sequence (O14777 whole entry): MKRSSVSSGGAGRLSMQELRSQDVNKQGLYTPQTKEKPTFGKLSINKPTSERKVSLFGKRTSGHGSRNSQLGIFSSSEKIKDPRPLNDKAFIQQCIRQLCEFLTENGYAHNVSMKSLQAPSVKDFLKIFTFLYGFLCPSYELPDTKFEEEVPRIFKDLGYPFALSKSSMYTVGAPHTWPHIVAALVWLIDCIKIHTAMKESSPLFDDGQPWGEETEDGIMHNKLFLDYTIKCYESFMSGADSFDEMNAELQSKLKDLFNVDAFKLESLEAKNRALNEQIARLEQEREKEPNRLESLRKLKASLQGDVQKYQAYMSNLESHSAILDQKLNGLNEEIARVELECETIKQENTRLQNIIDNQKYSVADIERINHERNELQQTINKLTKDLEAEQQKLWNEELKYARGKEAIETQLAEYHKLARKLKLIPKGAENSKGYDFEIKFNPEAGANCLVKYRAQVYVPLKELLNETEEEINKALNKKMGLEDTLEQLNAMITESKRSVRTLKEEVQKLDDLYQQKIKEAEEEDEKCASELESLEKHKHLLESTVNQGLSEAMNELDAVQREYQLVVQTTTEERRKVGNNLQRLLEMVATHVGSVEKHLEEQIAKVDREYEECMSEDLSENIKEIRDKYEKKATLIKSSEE

Variant	effect of a mutation on the interaction
W337R	disrupting interaction strength

Variants of: B7
Conditions: with tpm3_human TPM3, P06753
tpm3_human TPM3, P06753, sequence (P06753 whole entry): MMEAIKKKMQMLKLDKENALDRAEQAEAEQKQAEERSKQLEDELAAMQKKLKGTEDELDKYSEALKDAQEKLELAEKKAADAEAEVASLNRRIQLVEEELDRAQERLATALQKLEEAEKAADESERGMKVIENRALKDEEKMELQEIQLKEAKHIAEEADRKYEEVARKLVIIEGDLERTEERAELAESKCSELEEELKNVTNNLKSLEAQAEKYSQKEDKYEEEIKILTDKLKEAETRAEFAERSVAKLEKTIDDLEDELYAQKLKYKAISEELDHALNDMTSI

Variant	effect of a mutation on the interaction
W337R	disrupting interaction strength

Variants of: B7
Conditions: with KRT15, P19012

Variant	effect of a mutation on the interaction
W337R	with no effect

Variants of: B7
Conditions: with atg5_human ATG5, Q9H1Y0
atg5_human ATG5, Q9H1Y0, sequence (Q9H1Y0 whole entry): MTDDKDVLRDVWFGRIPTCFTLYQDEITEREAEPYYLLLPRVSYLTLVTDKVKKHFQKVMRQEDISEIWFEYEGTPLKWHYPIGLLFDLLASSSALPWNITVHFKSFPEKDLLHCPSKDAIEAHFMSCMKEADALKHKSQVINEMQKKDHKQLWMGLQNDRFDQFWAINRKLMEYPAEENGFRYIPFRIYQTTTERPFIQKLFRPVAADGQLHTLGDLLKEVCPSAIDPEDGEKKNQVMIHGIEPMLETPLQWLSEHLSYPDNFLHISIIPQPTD

Variant	effect of a mutation on the interaction
W337R	disrupting interaction strength

Variants of: B7
Conditions: with cc136_human CCDC136, Q96JN2
cc136_human CCDC136, Q96JN2, sequence (Q96JN2 whole entry): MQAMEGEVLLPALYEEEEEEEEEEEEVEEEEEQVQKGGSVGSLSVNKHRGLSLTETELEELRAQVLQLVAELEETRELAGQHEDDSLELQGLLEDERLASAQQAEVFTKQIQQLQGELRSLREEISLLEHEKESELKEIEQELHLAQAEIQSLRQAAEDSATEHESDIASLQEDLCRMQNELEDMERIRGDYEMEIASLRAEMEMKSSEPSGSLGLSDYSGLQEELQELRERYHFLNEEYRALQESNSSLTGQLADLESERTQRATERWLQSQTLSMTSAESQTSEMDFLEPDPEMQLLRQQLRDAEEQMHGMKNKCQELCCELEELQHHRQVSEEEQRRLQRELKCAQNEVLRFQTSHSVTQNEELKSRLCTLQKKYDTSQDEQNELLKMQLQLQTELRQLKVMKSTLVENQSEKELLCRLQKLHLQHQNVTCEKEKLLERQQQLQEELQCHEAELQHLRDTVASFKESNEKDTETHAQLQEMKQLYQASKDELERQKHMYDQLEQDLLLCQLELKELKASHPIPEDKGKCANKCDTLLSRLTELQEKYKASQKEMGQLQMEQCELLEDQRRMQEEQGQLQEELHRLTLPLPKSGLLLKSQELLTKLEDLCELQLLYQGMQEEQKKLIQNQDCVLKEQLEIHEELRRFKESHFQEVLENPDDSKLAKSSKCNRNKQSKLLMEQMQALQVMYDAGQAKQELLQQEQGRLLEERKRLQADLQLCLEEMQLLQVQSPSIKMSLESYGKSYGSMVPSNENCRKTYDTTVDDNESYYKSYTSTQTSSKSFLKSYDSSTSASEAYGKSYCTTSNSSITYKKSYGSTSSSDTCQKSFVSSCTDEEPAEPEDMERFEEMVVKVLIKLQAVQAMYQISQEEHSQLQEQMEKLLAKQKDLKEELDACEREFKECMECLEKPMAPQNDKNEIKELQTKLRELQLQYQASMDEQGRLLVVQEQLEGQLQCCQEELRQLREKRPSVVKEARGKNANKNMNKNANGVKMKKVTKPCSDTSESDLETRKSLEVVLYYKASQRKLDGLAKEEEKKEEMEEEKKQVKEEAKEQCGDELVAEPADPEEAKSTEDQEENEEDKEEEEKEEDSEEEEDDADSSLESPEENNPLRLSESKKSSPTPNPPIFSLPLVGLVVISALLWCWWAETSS

Variant	effect of a mutation on the interaction
W337R	with no effect

Variants of: B7
Conditions: with nup62_human NUP62, P37198
nup62_human NUP62, P37198, sequence (P37198 whole entry): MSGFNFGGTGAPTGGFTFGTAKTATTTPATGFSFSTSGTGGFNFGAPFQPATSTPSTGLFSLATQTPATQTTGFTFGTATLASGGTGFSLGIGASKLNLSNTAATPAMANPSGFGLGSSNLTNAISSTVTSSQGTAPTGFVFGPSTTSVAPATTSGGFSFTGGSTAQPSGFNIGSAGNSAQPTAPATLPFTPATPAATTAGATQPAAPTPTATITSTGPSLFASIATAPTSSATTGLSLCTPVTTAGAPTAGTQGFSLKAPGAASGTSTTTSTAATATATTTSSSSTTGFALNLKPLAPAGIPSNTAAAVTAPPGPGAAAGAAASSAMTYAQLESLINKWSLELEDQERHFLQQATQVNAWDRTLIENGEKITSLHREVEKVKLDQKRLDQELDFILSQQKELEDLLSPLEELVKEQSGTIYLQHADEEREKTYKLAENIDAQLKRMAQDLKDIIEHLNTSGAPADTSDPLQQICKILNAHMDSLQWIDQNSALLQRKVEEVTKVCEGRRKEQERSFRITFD

Variant	effect of a mutation on the interaction
W337R	with no effect

Variants of: B7
Conditions: with tsg10_human TSGA10, Q9BZW7

Variant	effect of a mutation on the interaction
W337R	disrupting interaction strength

Variants of: B7
Conditions: with anchr_human ZFYVE19, Q96K21

Variant	effect of a mutation on the interaction
W337R	disrupting interaction strength

Variants of: B7
Conditions: with sat1_human SAT1, P21673

Variant	effect of a mutation on the interaction
W337R	disrupting interaction strength

Variants of: B7
Conditions: with ndk7_human NME7, Q9Y5B8
ndk7_human NME7, Q9Y5B8, sequence (Q9Y5B8 whole entry): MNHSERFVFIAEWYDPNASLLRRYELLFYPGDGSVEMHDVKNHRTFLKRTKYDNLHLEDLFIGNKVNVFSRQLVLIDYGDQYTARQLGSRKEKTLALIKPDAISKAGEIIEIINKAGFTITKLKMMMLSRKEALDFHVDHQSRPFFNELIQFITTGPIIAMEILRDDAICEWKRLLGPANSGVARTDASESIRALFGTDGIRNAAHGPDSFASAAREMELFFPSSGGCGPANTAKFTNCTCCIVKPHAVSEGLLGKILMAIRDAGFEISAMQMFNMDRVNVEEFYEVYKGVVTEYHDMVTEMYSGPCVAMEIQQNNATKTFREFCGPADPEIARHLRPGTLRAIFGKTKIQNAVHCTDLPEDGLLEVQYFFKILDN

Variant	effect of a mutation on the interaction
W337R	with no effect

Variants of: B7
Conditions: with txlna_human TXLNA

Variant	effect of a mutation on the interaction
W337R	disrupting interaction strength
